According to patent publication US20230167164A1 (IMMUNOWAKE, published 2023):

Experiments:
Test in all cases: cell-based or functional assay
human IL-2 receptor = biological target: T1, human IL-2 receptor (human, UniProt P01589 22-272; P14784 27-551; P31785 23-369)
T1 sequence (looked up) 1: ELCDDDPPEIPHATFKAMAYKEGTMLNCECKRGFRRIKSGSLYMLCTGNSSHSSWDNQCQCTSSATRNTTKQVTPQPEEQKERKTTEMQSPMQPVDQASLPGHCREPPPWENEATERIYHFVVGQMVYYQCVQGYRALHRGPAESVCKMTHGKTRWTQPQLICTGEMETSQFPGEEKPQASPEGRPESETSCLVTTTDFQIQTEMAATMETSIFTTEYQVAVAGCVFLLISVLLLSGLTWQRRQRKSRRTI
T1 sequence (looked up) 2: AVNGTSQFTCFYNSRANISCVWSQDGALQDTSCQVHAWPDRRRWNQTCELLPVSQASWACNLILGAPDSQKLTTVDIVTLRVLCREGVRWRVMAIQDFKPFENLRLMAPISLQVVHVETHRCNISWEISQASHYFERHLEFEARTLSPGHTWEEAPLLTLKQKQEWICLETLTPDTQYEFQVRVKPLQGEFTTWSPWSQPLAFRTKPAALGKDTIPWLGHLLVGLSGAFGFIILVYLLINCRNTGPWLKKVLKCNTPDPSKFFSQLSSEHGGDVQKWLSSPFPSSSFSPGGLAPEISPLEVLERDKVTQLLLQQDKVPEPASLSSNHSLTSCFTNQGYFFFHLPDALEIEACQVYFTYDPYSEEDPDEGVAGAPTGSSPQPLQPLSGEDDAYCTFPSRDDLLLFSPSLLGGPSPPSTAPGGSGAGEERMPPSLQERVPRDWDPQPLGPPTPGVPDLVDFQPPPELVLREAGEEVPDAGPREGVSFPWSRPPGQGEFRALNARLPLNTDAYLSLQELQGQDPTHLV
T1 sequence (looked up) 3: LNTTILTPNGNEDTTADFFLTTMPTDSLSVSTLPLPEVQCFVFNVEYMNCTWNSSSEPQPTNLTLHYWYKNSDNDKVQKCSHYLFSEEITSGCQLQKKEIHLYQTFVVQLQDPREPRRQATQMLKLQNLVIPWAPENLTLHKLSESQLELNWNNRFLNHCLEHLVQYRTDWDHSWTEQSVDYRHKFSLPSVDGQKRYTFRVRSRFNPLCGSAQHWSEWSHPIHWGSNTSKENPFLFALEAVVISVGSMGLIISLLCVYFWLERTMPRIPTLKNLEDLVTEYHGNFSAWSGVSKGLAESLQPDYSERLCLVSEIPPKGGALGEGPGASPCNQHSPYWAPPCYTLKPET

[1] = biological target: human IL-12 receptor complex (human, UniProt P42701 24-662; Q99665 24-862)
[2] = biological target: human PD-1 overexpressed on HEK-Blue reporter cells (human, UniProt Q15116 25-288)
Sequence of human PD-1 overexpressed on HEK-Blue reporter cells (Q15116 25-288): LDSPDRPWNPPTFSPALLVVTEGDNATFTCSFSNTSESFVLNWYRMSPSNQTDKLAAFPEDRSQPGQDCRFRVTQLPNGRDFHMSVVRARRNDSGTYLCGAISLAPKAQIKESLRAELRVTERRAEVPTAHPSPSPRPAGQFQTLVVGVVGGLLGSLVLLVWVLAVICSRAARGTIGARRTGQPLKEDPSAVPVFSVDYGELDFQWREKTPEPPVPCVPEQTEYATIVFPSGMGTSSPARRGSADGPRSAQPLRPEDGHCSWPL

Sequence of human IL-12 receptor complex (Q99665 24-862, chain 2 of 2, other chains not shown): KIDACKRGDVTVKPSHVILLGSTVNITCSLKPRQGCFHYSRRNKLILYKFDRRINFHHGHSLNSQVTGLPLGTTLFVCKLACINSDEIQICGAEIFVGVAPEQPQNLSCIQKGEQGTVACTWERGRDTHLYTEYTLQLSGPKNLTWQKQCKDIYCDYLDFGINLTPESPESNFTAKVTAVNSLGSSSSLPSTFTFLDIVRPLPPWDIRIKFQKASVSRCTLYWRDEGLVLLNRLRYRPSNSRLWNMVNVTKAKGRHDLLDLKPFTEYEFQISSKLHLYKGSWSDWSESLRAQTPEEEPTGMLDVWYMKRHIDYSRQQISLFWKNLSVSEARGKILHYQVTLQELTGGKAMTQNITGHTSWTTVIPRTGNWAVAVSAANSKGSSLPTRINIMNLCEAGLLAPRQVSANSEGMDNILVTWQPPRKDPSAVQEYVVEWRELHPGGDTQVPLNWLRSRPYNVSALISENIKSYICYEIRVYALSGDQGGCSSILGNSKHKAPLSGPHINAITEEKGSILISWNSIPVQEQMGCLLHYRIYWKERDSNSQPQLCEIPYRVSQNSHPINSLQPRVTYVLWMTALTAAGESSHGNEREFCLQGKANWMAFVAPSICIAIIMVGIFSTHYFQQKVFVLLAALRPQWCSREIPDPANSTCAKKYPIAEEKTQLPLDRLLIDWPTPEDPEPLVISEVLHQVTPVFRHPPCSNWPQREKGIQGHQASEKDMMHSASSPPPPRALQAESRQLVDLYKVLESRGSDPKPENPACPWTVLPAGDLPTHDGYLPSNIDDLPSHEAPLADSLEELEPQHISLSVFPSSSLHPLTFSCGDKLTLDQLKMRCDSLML

Binder	IL-2 signal transduction, % of rIL-2, HEK-IL-2 cells (human IL-2 receptor) [%]	IL-12 signal transduction, % of rIL-12, HEK-IL-12 cells [1] [%]	IL-2 signal transduction, % of rIL-2, HEK-IL-2-PD-1 cells [2] [%]	IL-12 signal transduction, % of rIL-12, HEK-IL-12-PD-1 cells [2] [%]
IL-2(L18R/Q22E/R38D/K43E/E61R)/IL-12(E59A/F60A)/PD-L1(mut2)-Fc (Fc fusion) chain 1: FTVTVPKDLYVVEYGSNMTIECKFPVEKQLDLAALQVYWMMEDKNIIQFVHGEEDLKVQHSSYRQRARLLKDQLSLGNAALQITDVKLQDAGVYTCLIAYKGADYKRITVKVNAPYNKINQRILVVDPVTSEHELTCQAEGYPKAEVIWTSSDHQVLSGKTTTTNSKREEKLFNVTSTLRINTTTNEIFYCTFRRLDPEENHTAELVIPELPLAHPPNERGGGGSGGGIWELKKDVYVVELDWYPDAPGEMVVLTCDTPEEDGITWTLDQSSEVLGSGKTLTIQVKAAGDAGQYTCHKGGEVLSHSLLLLHKKEDGIWSTDILKDQKEPKNKTFLRCEAKNYSGRFTCWWLTTISTDLTFSVKSSRGSSDPQGVTCGAATLSAERVRGDNKEYEYSVECQEDSACPAAEESLPIEVMVDAVHKLKYENYTSSFFIRDIIKPDPPKNLQLKPLKNSRQVEVSWEYPDTWSTPHSYFSLTFCVQVQGKSKREKKDRVFTDKTSATVICRKNASISVRAQDRYYSSSWSEWASVPCSGGGGSGGGSGGGGSRNLPVATPDPGMFPCLHHSQNLLRAVSNMLQKARQTLEFYPCTSEEIDHEDITKDKTSTVEACLPLELTKNESCLNSRETSFITNGSCLASRKTSFMMALCLSSIYEDLKMYQVEFKTMNAKLLMDPKRQIFLDQNMLAVIDELMQALNFNSETVPQKSSLEEPDFYKTKIKLCILLHAFRIRAVTIDRVMSYLNASGGGGSGGGDKTHTCPPCPAPEDEGGPSVFLFPPKPKDTLMISRTPEVTCVVVDVSHEDPEVKFNWYVDGVEVHNAKTKPREEQYNSTYRVVSVLTVLHQDWLNGKEYKCKVSNKALPAPIEKTISKAKGQPREPQVYVYPPSREEMTKNQVSLTCLVKGFYPSDIAVEWESNGQPENNYKTTPPVLDEDGSFALVSKLTVDKSRWQQGNVFSCSVMHEALHNHYTQKSLSLSPGK chain 2: FTVTVPKDLYVVEYGSNMTIECKFPVEKQLDLAALQVYWMMEDKNIIQFVHGEEDLKVQHSSYRQRARLLKDQLSLGNAALQITDVKLQDAGVYTCLIAYKGADYKRITVKVNAPYNKINQRILVVDPVTSEHELTCQAEGYPKAEVIWTSSDHQVLSGKTTTTNSKREEKLFNVTSTLRINTTTNEIFYCTFRRLDPEENHTAELVIPELPLAHPPNERGGGSGAPTSSSTKKTQLQLEHLRLDLEMILNGINNYKNPKLTDMLTFEFYMPKKATELKHLQCLERELKPLEEVLNLAQSKNFHLRPRDLISNINVIVLELKGSETTFMCEYADETATIVEFLNRWITFCQSIISTLTGGGGSGGGDKTHTCPPCPAPEKKGGPSVFLFPPKPKDTLMISRTPEVTCVVVDVSHEDPEVKFNWYVDGVEVHNAKTKPREEQYNSTYRVVSVLTVLHQDWLNGKEYKCKVSNKALPAPIEKTISKAKGQPREPQVYVLPPSREEMTKNQVSLLCLVKGFYPSDIAVEWESNGQPENRYMTWPPVLDSDGSFFLYSKLTVDKSRWQQGNVFSCSVMHEALHNHYTQKSLSLSPGK	4	< 0.2	35	19
IL-2(R38D/K43E/E61R/Q126T)/IL-12(E59A/F60A)/PD-L1(mut2)-Fc (Fc fusion) chain 1: FTVTVPKDLYVVEYGSNMTIECKFPVEKQLDLAALQVYWMMEDKNIIQFVHGEEDLKVQHSSYRQRARLLKDQLSLGNAALQITDVKLQDAGVYTCLIAYKGADYKRITVKVNAPYNKINQRILVVDPVTSEHELTCQAEGYPKAEVIWTSSDHQVLSGKTTTTNSKREEKLFNVTSTLRINTTTNEIFYCTFRRLDPEENHTAELVIPELPLAHPPNERGGGGSGGGIWELKKDVYVVELDWYPDAPGEMVVLTCDTPEEDGITWTLDQSSEVLGSGKTLTIQVKAAGDAGQYTCHKGGEVLSHSLLLLHKKEDGIWSTDILKDQKEPKNKTFLRCEAKNYSGRFTCWWLTTISTDLTFSVKSSRGSSDPQGVTCGAATLSAERVRGDNKEYEYSVECQEDSACPAAEESLPIEVMVDAVHKLKYENYTSSFFIRDIIKPDPPKNLQLKPLKNSRQVEVSWEYPDTWSTPHSYFSLTFCVQVQGKSKREKKDRVFTDKTSATVICRKNASISVRAQDRYYSSSWSEWASVPCSGGGGSGGGSGGGGSRNLPVATPDPGMFPCLHHSQNLLRAVSNMLQKARQTLEFYPCTSEEIDHEDITKDKTSTVEACLPLELTKNESCLNSRETSFITNGSCLASRKTSFMMALCLSSIYEDLKMYQVEFKTMNAKLLMDPKRQIFLDQNMLAVIDELMQALNFNSETVPQKSSLEEPDFYKTKIKLCILLHAFRIRAVTIDRVMSYLNASGGGGSGGGDKTHTCPPCPAPEDEGGPSVFLFPPKPKDTLMISRTPEVTCVVVDVSHEDPEVKFNWYVDGVEVHNAKTKPREEQYNSTYRVVSVLTVLHQDWLNGKEYKCKVSNKALPAPIEKTISKAKGQPREPQVYVYPPSREEMTKNQVSLTCLVKGFYPSDIAVEWESNGQPENNYKTTPPVLDEDGSFALVSKLTVDKSRWQQGNVFSCSVMHEALHNHYTQKSLSLSPGK chain 2: FTVTVPKDLYVVEYGSNMTIECKFPVEKQLDLAALQVYWMMEDKNIIQFVHGEEDLKVQHSSYRQRARLLKDQLSLGNAALQITDVKLQDAGVYTCLIAYKGADYKRITVKVNAPYNKINQRILVVDPVTSEHELTCQAEGYPKAEVIWTSSDHQVLSGKTTTTNSKREEKLFNVTSTLRINTTTNEIFYCTFRRLDPEENHTAELVIPELPLAHPPNERGGGSGAPTSSSTKKTQLQLEHLLLDLQMILNGINNYKNPKLTDMLTFEFYMPKKATELKHLQCLERELKPLEEVLNLAQSKNFHLRPRDLISNINVIVLELKGSETTFMCEYADETATIVEFLNRWITFCTSIISTLTGGGGSGGGDKTHTCPPCPAPEKKGGPSVFLFPPKPKDTLMISRTPEVTCVVVDVSHEDPEVKFNWYVDGVEVHNAKTKPREEQYNSTYRVVSVLTVLHQDWLNGKEYKCKVSNKALPAPIEKTISKAKGQPREPQVYVLPPSREEMTKNQVSLLCLVKGFYPSDIAVEWESNGQPENRYMTWPPVLDSDGSFFLYSKLTVDKSRWQQGNVFSCSVMHEALHNHYTQKSLSLSPGK	2	< 0.2	20	25
